# Target: T1, RBD domain of the spike protein of SARS-CoV-2 virus (Acro Biosystems SPD-C52H3) (SARS-CoV-2, UniProt P0DTC2 319-537)
# T1 construct: domain: RBD domain
# Test: Affinity (SPR) by Octet; antigen not named, taken from the epitope column
row,Binder,Kd
1,"YANG-1102 (antibody, V domains shown) VH: QVQLQESGPGLVKPSGTLSLTCAVSGGSISTTNWWSWVRQSPGRGLEWIGEIFHIGYTNYNPSLKSRVTISVDKSKNQFSLKLNSVTVADTAVYYCARRVVMDTAMAHFDCWGQGTLVTVSS VL: QSVLTQPPSVSGAPGQRVTISCTGSSSNIGAGYDVHWYQHLPGTAPKLLIYININRPSGVPDRFSGSKSGTSASLVIAGLQAEDGADYYCQSYDSSLSGWVFGGGTRLTVL",< 0.1 nM
2,"YANG-1101 (antibody, V domains shown) VH: QLQLQESGPGLVKPSETLSLTCTVSGGSISSSSYYWGWIRQPPGKGLEWIGSIYYSGSIYYNPSLKSRVTISVDTSKNQFSLKLSSVTAADTAVYYCASWFGEFLKADAFDIWGQGTMVTVSS VL: QSALTQPASVSGSPGQSITISCTGTSSDVGGYSYVSWYQQHPGKAPKLMIYDVSKRPSGVSNRFSGSKSGNTASLTISGLQAEDEADYYCCSYAGGSTFVVFGGGTKLTVL",< 0.1 nM

# Target: SARS-CoV-2 spike protein receptor binding domain (isolated RBD) (SARS-CoV-2, UniProt P0DTC2 319-541)
# Test: not given
row,Binder,Kd
1,"IMPI-068 (antibody, V domains shown) VH: QVQLVESGGDVVQPGRSLRLSCAASGFTFSRYGMHWVRQAPGKGLEWVAVISYDGSDKYYADSVKGRFTISRDNSKNTLYLQMNSLRAEDTAVYYCAKQLPLYYYYYGMDVWGQGTTVTVSS VL: AIQLTQSPSSLSASVGDRVTITCRASQGISSALAWYQQKPGKAPNLLIYDASSLESGVPSRFSGSGSGTDFTLTISSLQPEDFATYYCQQFNIYPHTFGPGTKVDIK",40.5 nM

# Target: T2, S2 subunit of the SARS-CoV-2 spike protein (Sino Biological 40590-V08B), His tag (SARS-CoV-2, UniProt P0DTC2 686-1213)
# T2 construct: domain: S2 subunit
# Test: not given
row,Binder,HTRF deltaF
1,"IMPI-059 (antibody, V domains shown) VH: EVQLVESGGGLIQPGGSLRLSCAASGFTVSSIYMSWVRQAPGKGLEWVSIIYSRGSTDYADSVKGRFTISRDISKNTLYLQMNSLRAEDTAVYYCARDGTMVRGVHAFDIWGQGTMVTVSS VL: DIQMTQSPPSLSASIGDRVTITCQASQDISNYLNWYQQKPGKAPKLLIYDASNLETGVPSRFSGSGSGTDFTLTISNLQPEDIVTYYCQQYDNLPSSFGQGTKLEIK",-2.7 deltaF
2,"IMPI-055 (antibody, V domains shown) VH: QVQLVQSGAEVKKPGASVKVSCKASGYTFTSYDINWVRQATGQGLEWMGWMNPNSGNTGYAQKFQGRVTMTRDTSINTAYMELSSLRSEDTAVYFCARGGRYCSDVTCYSGEPFDYWGQGTLVTVSS VL: EIMLTQSPDFQSVTPKEKVTITCRASQSIGSSLHWYQQKPDQSPKLLIKFASQSISGVPSRFSGSGSGTDFTLTINSLEAEDAAAYYCHQSSSLPHTFGPGTKVEIK",-10.3 deltaF
3,"IMPI-063 (antibody, V domains shown) VH: EVQLVESGGGVVRPGGSLRLSCAASGFTFDDYGMSWVRQAPGKGLEWVSGIYWNGGSTGYADSVKGRFTISRDNAKNSLYLQMNSLRAEDMALYYCARGVGATDYWGQGTLVTVSS VL: EIVLTQSPGTLSLSSGERATLACRASESVRGSFLAWYQQKPGQAPRLLIYGASRRATGIPDRFSGSGSGTDFTLTISRLEPEDFAVYYCQQYGNSPMCSFGQGTKLEIK",411 deltaF
4,"IMPI-024 (antibody, V domains shown) VH: EVQLVQSGAEVKKPGESLKISCKGSGYSFTSYWIGWVRQMPGKGLEWMGIIYPGDSDTRYSPSFQGQVTISADKSISTAYLQWSSLKASDTAMYYCVRSYNWNYFDYWGQGTLVTVSS VL: AIQLTQSPSSLSASVGDRVTITCRASQGISSGLAWYQQKAGKAPKLLIYDVSSLESGVPSRFSGSGSGTDFTLTISSLQPEDFATYYCQQFLSYPWTFGQGTKVEIK",-15.4 deltaF
5,"IMPI-022 (antibody, V domains shown) VH: EVQLVESGGGLVQPGRSLRLSCAASGFTFDDYAMHWVRQAPGKGLEWVSGITWNSGSIGYADSVKGRFTISRDNAKNSLYLHMNSLRVEDTALYYCAKDLQGDYYYYGVDVWGQGTTVTVSS VL: AIQLTQSPSSLSASVGDRVTITCRASQGISSALAWYQQKPGKAPKLLLYDASSLVSGVPSRFSGSRSGTDFTLTISSLQPEDFATYYCQQFISYPLTFGGGTRVEIK",-9.7 deltaF
6,"IMPI-027 (antibody, V domains shown) VH: QVQLQESGPGLVKPSQTLSLTCTVSGGSISSYGYYWNWIRQHPGKGLEWIGYIYYSGSTYYNPSLKSRVTISVDTSKNQLSLRLNSVSAADTAVYYCARDFGGNSNYFDYWGQGTLVTVSS VL: AIQLTQSPSSLSASVGDRVTITCRTSQGISSALAWYQQKPGKAPKLLIYDASSLESGVPSRFSGSGSGTDFTLTISSLQPEDFATYYCQQFNSYPLTFGGGTKVEIK",7.5 deltaF
7,"IMPI-033 (antibody, V domains shown) VH: QVQLQESGPGLVKPSQTLSLTCTVSGGSISSYGYYWSWIRQHPGKGLEWIGYIYYSGSTYYNPSLKSRVTMSVDTSKNQLSLRLNSVSAADTAVYYCARDFGGNSNYFDYWGQGTLVTVSS VL: AIQLTQSPSSLSASVGDRVTITCRASQGISSALAWYQQKPGKAPNLLIYDASSLESGVPSRFSGSGSGTDFTLTISSLQPEDFATYYCQQFNSSPLTFGGGTKVEIK",-3.6 deltaF
8,"IMPI-029 (antibody, V domains shown) VH: EVQLVESGGGLIQPGGSLRLSCAASGVTVSSNYMNWVRQAPGKGLEWVSVIYSGGSTYYADSVKGRFTISRDNSKNTLFLQMNSLRAEDSAVYYCARDLGPYGVDVWGQGTTVTVSS VL: DIQLTQSPSFLSASVGDRVTITCWASQGISSYLAWYQQKPGKAPKLLIYAASTLQSGVPSRFSGSGSGTEFTLTISSLQPEDFATYYCQELNSYPLTFGQGTRLEIK",4.1 deltaF
9,"IMPI-017 (antibody, V domains shown) VH: EVQLVESGGGLIQPGGSLRLSCAAAGLTVSSNYMNWVRQVPGKGLEWVSVIYSGGSTYYADSVKGRFTISRDNSKNTLYLQMNSLRAEDTAVYYCARDLGTLGMDVWGQGTTVTVSS VL: DIQLTQSPSFLSASVGDRVTITCWASQGISTYLAWYQQKPGKAPKLLIYAASTLQSGVPSRFSGSGSGTEFTLTISSLQPEDFATYYCQQLNSYLPTFGQGTKVEIK",13 deltaF
10,"IMPI-037 (antibody, V domains shown) VH: not shown VL: DIQLTQSPSFLSASVGDRVTITCWASQGINSYLAWYQQKPGKAPKLLIYAASTLQSGVPSRFSGSGSGTEFTLTISSLQPEDFTTYYCQQFNDYPRTFGPGTKVEIK",-2 deltaF
11,"IMPI-047 (antibody, V domains shown) VH: EVQLVESGGGLIQPGGSLRLSCAASGFTVSSNYMNWVRQAPGKGLEWVSVIYSGGSTYYADSVKGRFTISRDNSKNTLYLQMNSLRTEDTAVYYCARDLVAYGMDVWGQGTTVTVSS VL: DIQLTQSPSFLSASVGDRVTITCWASQGISSYLAWYQQKPGKAPKVLIYAASTLQSGVPSRFSGSGSGTEFTLTISSLQPEDFATYYCQLLNSNPLTFGGGTKVEIK",4.3 deltaF
12,"IMPI-021 (antibody, V domains shown) VH: EVQLVESGGGLIQPGGSLRLSCAASGVTVSSNYMSWVRQAPGKGLEWVSVIYSGGSTFYADSVKGRFTISRDNSKNTLYLQMNSLRAEDTAVYYCARDLSYYGMDVWGQGTTVTVSS VL: DIQLTQSPSFLSASVGDRVTITCWASQGISSYLAWYQQKPGKAPKLLIYAASTLQSGVPSKFSGSGSGTEFTLTISSLQPEDFATYYCQQLNSYPCSFGQGTKLEIK",-0.3 deltaF
13,"IMPI-005 (antibody, V domains shown) VH: EVQLVESGGGLIQPGGSLRLSCAASGFTVSSNYMNWVRQAPGKGLEWVSVIYSGGSTYYADSVKGRFTISRDNSKNTLFLQMNSLRAEDSAVYYCARDLGPYGVDVWGQGTTVTVSS VL: DIQLTQSPSFLSASVGDRVTITCWASQGISSYLAWYQQKPGKAPKLLIYAASTLQSGVPSRFSGSGSGTEFTLTISSLQPEDFATYYCQELNSYPLTFGQGTRLEIK",-1.8 deltaF
14,"IMPI-060 (antibody, V domains shown) VH: EVQLVESGGGLIQPGGSLRLSCAASGVTVSSNYMSWVRQAPGKGLEWVSVIYSGGSTFYADSVKGRFTISRDNSKNTLYLQMNSLRAEDTAVYYCARDLSYYGMDVWGQGTTVTVSS VL: DIQLTQSPSFLSASVGDRVTITCWASQGISSYLAWYQQKPGKAPKLLIYAASTLQSGVPSKFSGSGSGTEFTLTISSLQPEDFATYYCQQLNSYPSSFGQGTKLEIK",6 deltaF
15,"IMPI-054 (antibody, V domains shown) VH: EVQLVESGGGLIQPGGSLRLSCAASGLTVSSNYMSWVRQAPGKGLEWVSIIYSGGSTYYADSVKGRFTISRDNSKNTLYLQMNSLRAEDTAVYYCARLGGYYYYGMDVWGQGTTVTVSS VL: DIQMTQSPSSLSASVGERVTITCQASQDIRNYLNWYQKKPGKAPKLLIYDSSNLETGVPSRFSGSGSGTDFTFTISSLQPEDIATYYCQQYDNLPITFGQGTRLEIK",15.8 deltaF
16,"IMPI-042 (antibody, V domains shown) VH: EVQLVESGGGLIQPGGSLRLSCAASGLTVSSNYMSWVRQAPGKGLEWVSIIYSGGSTYYADSVKGRFTISRDNSKNTLYLQMNSLRAEDTAVYYCARLGGYYYYGMDVWGQGTTVTVSS VL: DIQMTQSPSSLSASVGERVTITCQASQDIRNYLNWYQKKPGKAPKLLIYDSSNLETGVPSRFSGGGSGTDFTFTISSLQPEDIATYYCQQYDNLPITFGQGTRLEIK",1.6 deltaF
17,"IMPI-032 (antibody, V domains shown) VH: QVQLQESGPGLVKPSGTLSLTCAVSGGSISSNKWWSWVRQPPGKGLEWIGEIDHSGSTMYNPSLKSRVTISVDKSKNQFSLKLNSVTAADTAVYYCTGEGYNWNYWGQGTRVTVSS VL: DVVMTQSPLSLPVTLGQTASISCRSSQSLLYTDGNTYLSWFQQRPGQSPRRLIYKVSKWESGVPDRFSGSGSGTDFTLKISRVEAEDVGIYYCMQGTHWPLTFGGGTKVEIK",-8 deltaF
18,"IMPI-006 (antibody, V domains shown) VH: QLQLQESGPGLVKPSETLSLTCTVSGGSISNSNYYWGWIRQPPGKGLEWIGSIYYSGRTYYNPSLKSRVTISVDTSKNQFSLKLSSVTAADTAVYYCARMGLLWFGEFYGMDVWGQGTTVTVSS VL: DIQMTQSPSSLSASVGDRVTITCRASQGISSWLAWYQQKPEKAPKSLIYDASSLQRGVPSRFSGSGSGTDFTLTISSLQPEDFASYYCQQYNSYPLTFGGGTRVEIK",40.7 deltaF
